Laboratory results taken from the DeepSol protein solubility set.

Experiment: soluble on expression in E. coli; label from the status in PepcDB or PDB records

| Sequence | soluble on expression in E. coli |
| --- | --- |
| MTKTQLVCDKNQLNWGLKAAKAIAGKSPYDVVQMRVSPDRDYLYICAVNAEATLVAKVELLVANISSEEDEIITIDKAKIPALILATAETGKKSEDSRPMAGICIRGKEVDFTDENGAGRGVDLTTIHRNDSAEIGDPVRTIIRVKQ | not soluble |
| MSHHHHHHSQGGPQDHVEIIPLGGMGEIGKNITVFRFRDEIFVLDGGLAFPEEGMPGVDLLIPRVDYLIEHRHKIKAWVLTHGHEDHIGGLPFLLPMIFGKESPVPIYGARLTLGLLRGKLEEFGLRPGAFNLKEISPDDRIQVGRYFTLDLFRMTHSIPDNSGVVIRTPIGTIVHTGDFKLDPTPIDGKVSHLAKVAQAGAEGVLLLIADATNAERPGYTPSEMEIAKELDRVIGRAPGRVFVTTFASHIHRIQSVIWAAEKYGRKVAMEGRSMLKFSRIALELGYLKVKDRLYTLEEVKDLPDHQVLILATGSQGQPMSVLHRLAFEGHAKMAIKPGDTVILSSSPIPGNEEAVNRVINRLYALGAYVLYPPTYKVHASGHASQEELKLILNLTTPRFFLPWHGEVRHQMNFKWLAESMSRPPEKTLIGENGAVYRLTRETFEKVGEVPHGVLYVDGLGVGDITEEILADRRHMAEEGLVVITALAGEDPVVEVVSRGFVKAGERLLGEVRRMALEALKNGVREKKPLERIRDDIYYPVKKFLKKATGRDPMILPVVIEG | soluble |
| MGSDKIHHHHHHMEQSMRKKNNNQINIVLNHRKKISLPAAENKTVISSETTTKHEMLQRIEEEMGKLVGMDDIKKIIKEIYAWIYVNKKRQEIGLKSEKQVLHMLFKGNPGTGKTTVARMIGKLLFEMNILSKGHLVEAERADLVGEYIGHTAQKTRDLIKKAMGGILFIDEAYSLARGGEKDFGKEAIDTLVKHMEDKQHGFVLILAGYSREMNHFLSLNPGLQSRFPFIIEFADYSVNQLLEIGKRMYEEREYQLSKEAEWKFRDHLHAVKYSSQITSFSNGRYVRNIVEKSIRTQAMRLLQEDAYDKYDLIGISSSDLMLEEETHST | not soluble |
| MKAREILEILNAELLTGEENLDMEFNAACGSDLMSDVMAYVKENVVLLTGLVNPQVIRTAEMMDIKLVVFIRGKRPEEKIIQMAKEKGIAIMTTNDPMFIACGKLYSAGITERGVWD | not soluble |
| MAETEILKCIGCGAPLQSEDLDAPGYVPESSLYKEDVICKRCFRLKNYNEVQDVGLDSEDFLNLLNGLADKKGIVVNVVDVFDFEGSFINAIKRIVGNKQIILVGNKLDLLPKQINKRRVKEWLKKTARKYGLDAEDVILISAEKNEGIEDLLNAINTLRNNDDVYIVGTTNVGKSTLINKLIERSVGEKNVVTTSRFPGTTLDMIDIPLDDTSFMYDTPGVIQEHQMTHYVTEKELKTIMPKKEVKQRVYQLNEGQTLFFGGLARIDYISGGKRPLVCYFSNDLNIHRTKTENANELWRNQLGDVLSPPNNPDHFDLQNVKAVRLETGKEKRDVMISGLGFITIDEGAKIIVRVPKNVDVVLRNSIMLEHHHHHH | not soluble |
| MGSDKIHHHHHHMEVEIVERNAFTAVGKKRTFSVENDAQKEKISQFWQEVNANGDAERINELAEFATIDGILGVCQMNGDQMDYYIAIESELTPPADMEKLTIPASKWAIFKSVGPLPNAIQKVWEYIYGEWFQTCNYTHGNAPELEVYTEGDTTAVDYYSEVWIPVVEKD | not soluble |
| MAHHHHHHMFLFRHSAEPMEAEEERHERVDSTTEPHNAATAAARKRRTSADVANGEVSREASGVAESFDETGGAPHTPREGTAPPPDVHDMLEHQRPRDEDDAEADMAAAALAASAPAPFHGVPTLPMPRTCDENPQAEADGNSTQRHRSYSHTSRFAAPSPRSTSGISRGRSYSLSGLSAAELADVHEQQYRRCTSIVKSARCISARRASSVNGVVGVIDDLYTLASRRSSAMTEAERVAVERMIENEYRRQEAAERSAQFALARESIIVNEELAREKATYVRRMHLNEELHARLAKSSRTRQERMTAAAQRRQEIEQERLRVLYGSMMEKDTRYHFRNPYEMMAAQRRYSIEMRSPAAIAPQRRASSPSTRASGNAQMSPRSAEGVANCTTEDRCTSSPATRRRSSTPSIAKSKPRQCLPLDAWKKPVPPRKDSCRSDISAEHRCRSPTDWRATAVLEHPRQWH | not soluble |
| MGSDKIHHHHHHMDAAAAPERIDLAGLVADLNALLRLKTTVIGMKLFRTVAEMEAVPKIRRPNAIHTTDQIVSMASRLGWTVGITAADLVGEQCRAVIGLAPQDAAWLAGRSYVGVWHATPEDASARQQALDVVPFGHHQAMAVSPLASGRLDPPDICLVYATPGQMIILINGLQYAGYKKFEWSVVGETACADSWGRALKTGEPSLSLPCFAERRYGGVPDEEMLMALSPAHLAKAIDGMKQLAKNGLRYPIAPYGIQADVRAGMGVSYGNK | not soluble |
| MAHHHHHHMSQLSASPREEPVGIPELFLQYLKAKDLKDQLAIVRAHPVLFTDDVVAALKDARAQMNETFVEVKETCRVIDAVSGSLQYTGTSVQLQQTVAKELLDEDAILKKFATSLAGLLRARETAGPAAPSTISSLATASRVSSSLGAGKSHSPGAWFTQPSLVFSVLTFLSAEEIFITAENVCRAWQTWLFLPDMSRFFWVGCVQREFPEQLQVLLQTAGDDLYQSDWRSLAMLCVTEGEQAAEAEEAEEAGDGGAVRGVVPFL | not soluble |
| MAHHHHHHMTDASKYKKLTPIDHVLLRPEMYVGSIETQPTPMYIFDPEKGRMVWETMRVNQGLLKIVDEILLNAADNINNSKGSVRQTYINIHISDTGEITVENDGAGLPIVRSREHKMYIPEMVFGHLLTSSNYNNDSTSTTAGRHGYGAKLTNILSTKFSVVCRTDGREFHMSWTDHMRMATAPRVNRVDPKEKNVTRVKFMPDYAHFGFPSASISLDMKRVLHKRVMDLAAMFSKIEVRLNNVPFGFRTFTDYAGLYSLPGLDGSMPPEPFVYTSPNGSVAYVPQLTQSPKRIVSVVNGVVTYNGGTHCNAAMDILDACLDSLSKNFKKNGKVVDTNRVQRHFTVLVFLVQAQPKFDSQSKARLVSTVTMPRVPKNTLEKYLERMPFLEAHVNSMDDQLTNELNKEIGAGRRLSSKTLISSITKLVDATSSRPDGRNIRTLIITEGDSAKALALNSLSSEQKKYCGVFPLRGKLLNVRNKNLKRLKTCKELQDLFLSLGLELGKEYRSPAELRYQRLLVMTDQDADGSHIKGLVINAFESLWPKLLQNNPGYISLFSTPIVKIKVSGKSKEAIAFHSFRDFHRWQRAHPSARYTAKYYKGLGTSTTAEGKEYFADMEKNVMQLTVDARDHQLLDSVFDAAEVEWRKEWMTKANAFQGEVDIDRSKKTLTIPEFVHKEMVHFALVGNARAIPHCVDGLKPSQRKILWAMLRRHNSEASKVAQLSGYISEASAFHHGEASLQETIVKMAQNFTGGNNINLLVPEGQFGSRQQLGSDHAAPRYIFTKLSRFARLLFPEEDDPLLDYMDEEGTFVEPHHYVPILPMLLCNGAVGIGFGFATTIPSFHPLDVSAAVRAMINGESAKQVVRNLVPWAVGFQGTVRRGPDNEFIAVGKYTAHPNGRFHISEIPWMTSIEAFRLHISSLASADVVQRIADYSGANHIDIDLIVRDGSLTTWAECETDLALAQRIYINGTVFSPAGTLSPIDSDLSPVLQWHYDRRLDLYKRRRTRKIGLMEMDLARLQSTRKFVEHFRQGQIDFLNATDDTLHKTCVKLGLVRVDESFDYILKKPITFFTRTSTEKLQADIAKTQAQIEELKRTTPVKMWLTELDKFDKTFQEYERVLINSIQKEQRSSSITGGVELPALRQPLLLLEASVKGATAYRVHACQYEKPPPSKRRPGESFGGARSSDSAVRGVGKRLVGSRAVFKKKKPMGRKNNVKVSLSTRVAQFAGAQLGRLLPHILV | not soluble |
| MSSSSFTTERPFTPELLSPAGTLKNMRYAFAYGADAVYAGQPRYSLRVRNNEFNHENLALGIQEAHALGKRFYVVVNIAPHNSKLKTFLRDLKPVIEMGPDALIMSDPGLIMMVRDAFPQMDIHLSVQANAVNWATVKFWQQMGLTRVILSRELSLEEIAEIRAQVPEMELEVFVHGALCMAYSGRCLLSGYINKRDPNQGTCTNACRWEYNVQEGKEDDVGNIVHIHQPIAVKNVEPTLGIGAPTDKVFVIEEAQRPGEYMTASEDEHGTYIMNSKDLRAIQHVERLTQLGVHSLKIEGRTKSFYYCARTAQVYRRAIDDAVAGKPFDPSLLTTLEGLAHRGYTEGFLRRHVHEEQQTYEYGYSVSERQQFVGEFTGVRREGLAEVLVKNKFSRGDSVELMTPKGNIQFTLESMQDKKGQPADIAPGNGHIMYLPIPEEIDVEYGLLIRNLNGTNSRNPHEKA | not soluble |
| MGSDKIHHHHHHMKETEARAAEALRRLLENIPILHVEGIDAEAVSGDWVPDLIARLVVDGKRHLLICEYKSSGQPRFARSALLELRNYVAQRAPEATPVFIAPYISPVVRKMCEEKGVGYLDLEGNARIAFGGVFIERMVTDKPVVEQRELRSLFRPKSAQVLRAMLRDPGRAWRVTELSEISGVSLGHVSNVRTGLIDREWARASDDGLILSEPDALLDAWRDSYAAPAGERSSFYTPLHGSALEDAARSVLRVEDTRGRAAFASFSAAQWLAPYGRTGTHYFFADEDGLRKLQAALKLAPALKGENVIVTVPKDLGLLADTVEPAPGAICTSPVQTYLDLSIAGERGAEAADHLRQERLSWPR | not soluble |
| QNLPQGDLMQHGMMAVKAATLSDAEVRQVADQACAESDQQNRIAPANSKYGQRLDKIAKALGDQIDGVPVNYKVYLTEEVNAWAMANGCIRVYSGLMELMSDNEIEGVLGHEMGHVALGHTRKAAQTAYAAAAVRGAAGASKSGALAALSGSQLGELTESLVNAQFSQSQESDADDFSYELLKKRGVNTQGLVTAFEKLAKLGGGDSSMFDSHPGSQARADHIRQRIAADR | not soluble |
| MAHHHHHHMITGGSEKLLTKDSVAQYIRRVSSGLLYESAVLPIQFLIRGFRDIVPCEALASLGEQEMMSLLCGCRANDKKPLWTLAEIKSILVAEHGYQTDSPQMTMLQNILANRLTPAEQRSFLLFCTGCPRLPVGGVGALGAITVVKRSDFTMFHGSSGRNSGGSDGIGGADRKEQNPKQPGEWNSLPNETDWPLPSVNTCFRYLKLPPYPTEDLMYKKLRLSIMQGGETFQLS | not soluble |
| EKTVRVVINFKKTQKTIVRVSPHASLQELAPIICSKCEFDPLHTLLLKDYQSQEPLDLTKSLNDLGLRELYAMDVNRE | soluble |
| RPLKRDKPAARTLKDNWLRTEREERLWQALRVWRMKQAEAEGIPAYMIFGDKTLRDLVEKMPQDLNGLHDIYGLGEAKIDRFGHGILEVCRNAAGFSRDAVIRPQTEREQQLRQKLEAWRYEQARAENCALHAVLSDESLADMLADTPETETDLEGVYGLGSVRAAKYGRDILAVCRPFSDGIDETAKRKRRLMRALIQWCGETAKHEQSEPYRILSKAALRAIAAKQPEGLAELAAVYGVGEEKAARYGAAVLAVLERNAV | not soluble |
| AIATDSASLQFVSPYAFEAMQKVDVARLAALSDPELRLLLPCLVRMALCAPADQSNAWAQDKKLILRLLSGVEAVNSIVALLSVDFHALEQDARKEQQLRHKAGGSNGESILVSQLQHGLTLEFEHSDPLRRLRLALSELLAIMNKVQCPFIYSCIGMLIRVIFPTGAH | soluble |
| MSIRLAQVTDIPVLKELLNQIFQVHQTVRPDLFKNTDKGSKYSETELKELLQDESKPIFVYTDGKNRVLGHLFLVIKETKGSSVSKPLKTLFIDDLCVSKEARGQKIGQELFEFALKYAKKLGCYDLTLNVWNDNKGALAFYERQGLKARETKMEKILLEHHHHHH | soluble |
| MAHHHHHHMKSMRAVTMRAFGDVDVMHISEVTGVSLSRPSDVIIRVMAAGVNRADVSQRQGHYPPPKGSSEILGMEVSGVVEKVGENVKRFKEGDRVMALLTGGGYAEMAVAHEGSVMKIPEGYSFVEAAAIPEAFLTAWQALKLHGNLQKGQHMLFHAGASGVGTAALQLAEKYFRATAIATCSSGKVEFCKRFAKFVVDRSPDASGKCFSSKVRDAVKGETVNLIVDPVVGGTYLQEDGEVLAQDGKVVLLAFMGGAKVSLDVMPFFRKRASVIFSKLRDQTDEYKEALVRSFEEEVIPYMTRREIVPVVQCTYALEEVAAAHKLMENNKSNGKVILTVGKAE | soluble |
